# Measurements taken from PMC3828517 (Genes & Development, 2013).
# T1: MBP-Norrin (human Norrin residues 25–133 fused to the C terminus of maltose-binding protein) (human), Q00604
# T1 chain: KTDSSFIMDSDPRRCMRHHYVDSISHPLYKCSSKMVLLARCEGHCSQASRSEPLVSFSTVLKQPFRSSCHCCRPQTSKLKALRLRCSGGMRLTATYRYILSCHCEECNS
# T2: Fz4-FcH6 (Frizzled 4 cysteine-rich domain fused with an FcH6 tag) (human, UniProt Q9ULV1 40-164)
# T2 sequence: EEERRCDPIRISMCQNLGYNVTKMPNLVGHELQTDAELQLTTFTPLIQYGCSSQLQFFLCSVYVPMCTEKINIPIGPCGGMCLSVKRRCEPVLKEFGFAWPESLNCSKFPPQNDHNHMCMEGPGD
# T3: Lrp6BP2-FcH6 (Lrp6 β-propeller 2 as an Fc fusion protein) (human, UniProt O75581 325-631)
# T3 sequence: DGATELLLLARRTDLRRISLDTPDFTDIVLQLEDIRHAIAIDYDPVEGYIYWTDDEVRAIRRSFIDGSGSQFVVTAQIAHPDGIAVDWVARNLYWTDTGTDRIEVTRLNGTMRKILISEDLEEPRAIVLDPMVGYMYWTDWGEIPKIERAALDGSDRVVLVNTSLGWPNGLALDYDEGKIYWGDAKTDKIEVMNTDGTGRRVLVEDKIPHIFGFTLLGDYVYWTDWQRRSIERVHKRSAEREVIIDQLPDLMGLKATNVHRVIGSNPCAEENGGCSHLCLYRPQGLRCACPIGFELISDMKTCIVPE
# What was measured:
# [1] = molecular target: Lrp6 β-propeller domains 1–2 (BP1–2), His8-tagged (human); assay: AlphaScreen or HTRF
# [2] = molecular target: the molecule itself; assay: crystal structure
# [3] = molecular target: T1, MBP-Norrin (human Norrin residues …); assay: SEC; conditions: remark: other sources report otherwise
# [4] = molecular target: T2, Fz4-FcH6 (Frizzled 4 cysteine-rich …); assay: AlphaScreen or HTRF
# [5] = molecular target: T3, Lrp6BP2-FcH6 (Lrp6 β-propeller 2 as an …); assay: BLI
# [6] = molecular target: T2, Fz4-FcH6 (Frizzled 4 cysteine-rich …); assay: BLI
# [7] = molecular target: T3, Lrp6BP2-FcH6 (Lrp6 β-propeller 2 as an …); assay: AlphaScreen or HTRF
molecule,measurement,setting,value
MBP-Norrin C55A/C110A mutant protein (from UniProt Q00604 25-133) (ligand),IC50,[1],207 nM
MBP-Norrin R41E mutant protein (from UniProt Q00604 25-133) (ligand),IC50,[1],288 nM
"MBP-Norrin truncation construct (Norrin residues 31–133 fused with MBP at its N terminus), as crystallized (ligand) IMDSDPRRCMRHHYVDSISHPLYKCSSKMVLLARCEGHCSQASRSEPLVSFSTVLKQPFRSSCHCCRPQTSKLKALRLRCSGGMRLTATYRYILSCHCEECNS",binding result,[2],binds
"MBP-Norrin (human Norrin residues 25–133 fused to the C terminus of maltose-binding protein), Q00604 25-133 (ligand) KTDSSFIMDSDPRRCMRHHYVDSISHPLYKCSSKMVLLARCEGHCSQASRSEPLVSFSTVLKQPFRSSCHCCRPQTSKLKALRLRCSGGMRLTATYRYILSCHCEECNS",stoichiometry N,[3],2
MBP-Norrin (human Norrin residues 25–133 fused to the C terminus of maltose-binding protein) (ligand) KTDSSFIMDSDPRRCMRHHYVDSISHPLYKCSSKMVLLARCEGHCSQASRSEPLVSFSTVLKQPFRSSCHCCRPQTSKLKALRLRCSGGMRLTATYRYILSCHCEECNS,IC50,[4],34 nM
same,binding result,[5],binds
same,Kd,[6],5 nM
"biotinylated MBP-Norrin (AviTag-MBP-Norrin, biotinylated in vivo) (ligand, biotin on the AviTag (in vivo biotinylation by BirA)) KTDSSFIMDSDPRRCMRHHYVDSISHPLYKCSSKMVLLARCEGHCSQASRSEPLVSFSTVLKQPFRSSCHCCRPQTSKLKALRLRCSGGMRLTATYRYILSCHCEECNS",binding result,[7],binds
same,Kd,[4],11 nM
MBP-Norrin K54E/R109E mutant protein (ligand) KTDSSFIMDSDPRRCMRHHYVDSISHPLYECSSKMVLLARCEGHCSQASRSEPLVSFSTVLKQPFRSSCHCCRPQTSKLKALRLECSGGMRLTATYRYILSCHCEECNS,IC50,[4],18 nM
MBP-Norrin C55A/C110A mutant protein (ligand) KTDSSFIMDSDPRRCMRHHYVDSISHPLYKASSKMVLLARCEGHCSQASRSEPLVSFSTVLKQPFRSSCHCCRPQTSKLKALRLRASGGMRLTATYRYILSCHCEECNS,IC50,[4],37 nM
